The record followed here is patent US20160369268.

Assay in all cases: cell_activity
Series [1] has as its system TALETRE#4-KRAB (synthetic (Xanthomonas TALE)). The settings on record: 50 ng, against TALETRE#4-VP16-induced AmCyan.
The subject of series [2] is TALETRE#3-KRAB (synthetic (Xanthomonas TALE)). Conditions: 50 ng, against TALETRE#4-VP16-induced AmCyan.
The test system of series [3] is TALECMV-KRAB (synthetic (Xanthomonas TALE)). The settings on record: 100 ng, CMV-mKate-PEST in HEK293; only 19% on TRE/CMVmin AmCyan at 50 ng.

As to “ATCAGTGATAGAGAAC (double strand) [TRE target of TALETRE#4]”, the activity in series [1] stood at 80 % repression.

“CCCTATCAGTGAT (double strand) [TRE target of TALETRE#3]” yielded an activity in series [2] of 84 % repression.

In series [3], “CTATATAAGCAGAGCT (double strand) [CMV TATA box region target]” came in with an activity of 93 % repression.
